Reference: paper PMC10728118, “Mutant GGGGCC RNA prevents YY1 from binding to Fuzzy promoter which stimulates Wnt/β-catenin pathway in C9ALS/FTD”

How the values were obtained:
[1] = molecular target: His-YY1 ZF1+ZF2 del352-end (UniProt P25490); assay: EMSA; conditions: EMSA: 10 mM HEPES-KOH, 12 mM Tris-HCl, 50 mM NaCl, 50 mM KCl, 5 mM MgCl2, 100 uM ZnCl2, 0.01% NP-40, 5% glycerol, 2.5 mM DTT, pH 7.4, 25 C, 2.5 nM probe; FP: …
[2] = molecular target: His-YY1 ZF1+ZF2+ZF3 del382-end (UniProt P25490); assay: EMSA; conditions: EMSA: 10 mM HEPES-KOH, 12 mM Tris-HCl, 50 mM NaCl, 50 mM KCl, 5 mM MgCl2, 100 uM ZnCl2, 0.01% NP-40, 5% glycerol, 2.5 mM DTT, pH 7.4, 25 C, 2.5 nM probe; FP: …
[3] = molecular target: T1, His-YY1 full-length (UniProt P25490 1-414); assay: EMSA; EMSA: 10 mM HEPES-KOH, 12 mM Tris-HCl, 50 mM NaCl, 50 mM KCl, 5 mM MgCl2, 100 uM ZnCl2, 0.01% NP-40, 5% glycerol, 2.5 mM DTT, pH 7.4, 25 C, 2.5 nM probe; FP: 50 mM Tris-HCl, 100 mM KCl, 2.5 mM MgCl2, 100 uM ZnCl2, pH 7.4, 25 C; conditions: protein: recombinant, tags: His, label: Cy5
[4] = molecular target: T1, His-YY1 full-length; assay: fluorescence polarisation; EMSA: 10 mM HEPES-KOH, 12 mM Tris-HCl, 50 mM NaCl, 50 mM KCl, 5 mM MgCl2, 100 uM ZnCl2, 0.01% NP-40, 5% glycerol, 2.5 mM DTT, pH 7.4, 25 C, 2.5 nM probe; FP: 50 mM Tris-HCl, 100 mM KCl, 2.5 mM MgCl2, 100 uM ZnCl2, pH 7.4, 25 C; conditions: protein: recombinant; tags: His; label: FAM

T1 sequence (P25490 whole entry): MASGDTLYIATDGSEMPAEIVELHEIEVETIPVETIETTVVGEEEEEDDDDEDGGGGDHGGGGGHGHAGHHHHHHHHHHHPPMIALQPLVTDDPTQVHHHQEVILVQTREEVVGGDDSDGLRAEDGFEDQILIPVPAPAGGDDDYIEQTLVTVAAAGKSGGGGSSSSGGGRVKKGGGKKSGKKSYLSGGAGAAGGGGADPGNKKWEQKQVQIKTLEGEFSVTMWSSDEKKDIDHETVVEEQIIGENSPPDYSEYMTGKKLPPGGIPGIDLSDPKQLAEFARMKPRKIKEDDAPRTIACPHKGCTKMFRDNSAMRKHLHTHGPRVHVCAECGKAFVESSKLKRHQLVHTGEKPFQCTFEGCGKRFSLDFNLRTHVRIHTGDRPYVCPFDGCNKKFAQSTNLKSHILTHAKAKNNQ
Sequence of His-YY1 ZF1+ZF2 del352-end (P25490 1-351): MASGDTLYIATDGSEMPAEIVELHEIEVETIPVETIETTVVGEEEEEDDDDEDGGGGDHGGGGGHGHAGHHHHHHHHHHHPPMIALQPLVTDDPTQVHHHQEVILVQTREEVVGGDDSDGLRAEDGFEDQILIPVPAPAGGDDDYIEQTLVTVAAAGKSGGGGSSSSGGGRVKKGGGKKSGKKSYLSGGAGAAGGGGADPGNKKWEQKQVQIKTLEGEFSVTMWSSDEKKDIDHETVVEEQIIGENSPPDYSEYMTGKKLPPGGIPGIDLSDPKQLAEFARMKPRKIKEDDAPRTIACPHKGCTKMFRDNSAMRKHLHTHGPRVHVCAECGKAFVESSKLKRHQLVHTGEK
Sequence of His-YY1 ZF1+ZF2+ZF3 del382-end (P25490 1-381): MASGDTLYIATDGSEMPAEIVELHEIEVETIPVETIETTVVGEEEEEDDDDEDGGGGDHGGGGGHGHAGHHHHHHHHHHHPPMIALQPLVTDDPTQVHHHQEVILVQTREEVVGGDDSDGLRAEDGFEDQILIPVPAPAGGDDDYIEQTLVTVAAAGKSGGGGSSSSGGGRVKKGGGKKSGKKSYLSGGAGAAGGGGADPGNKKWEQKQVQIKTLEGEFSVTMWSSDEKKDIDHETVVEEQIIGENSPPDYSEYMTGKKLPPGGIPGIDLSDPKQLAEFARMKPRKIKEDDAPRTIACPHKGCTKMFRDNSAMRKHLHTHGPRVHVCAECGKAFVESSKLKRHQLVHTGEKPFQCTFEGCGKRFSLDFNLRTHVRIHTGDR

## GGGGCCGGGGCCGGGGCCGGGGCCGGGGCCGGGGCCGGGGCCGGGGCC [(GGGGCC)8 RNA]
[1]
  Kd: 129 nM
[2]
  Kd: 59 nM

B1: PP7 RNA (ssRNA)
RNA: UAAAGUAAGAUAAGGCAAGACAAGGUAAAACGGAACAGAACCGAAGGGAAGAGAAGCAAAGCGAAAGGAAAUAAACAAAAGAAAAAUUCGUAGAAUUCCG
[3]
  binding result: binds

B2: (GGGGCC)8 RNA (ssRNA)
RNA: GGGGCCGGGGCCGGGGCCGGGGCCGGGGCCGGGGCCGGGGCCGGGGCC
[3]
  Kd: 46.8 ± 3.42 nM

B3: AAV P5 DNA (dsDNA)
DNA 1: AGGGTCTCCATTTTGAAGCG
DNA 2: CGCTTCAAAATGGAGACCCT
[3]; blunt
  binding result: binds

B4: randomised GC-rich RNA (ssRNA)
RNA: GGGCGCGGCGCGCGGGCCGGGGCGGGCGCGCGGGCGGGGCGCGGCGCG
[3]
  Kd: 201 ± 17.9 nM

B5: FAM-(GGGGCC)8 RNA (ssRNA)
RNA: CGGGGCCGGGGCCGGGGCCGGGGCCGGGGCCGGGGCCGGGGCCGGGGCCG
[4]
  Kd: 45.3 ± 3.67 nM

B6: FuzzyYY1-a DNA (dsDNA)
DNA 1: TGGGCAACATGGCGACACCC
DNA 2: GGGTGTCGCCATGTTGCCCA
[3]; blunt
  Kd: 242 ± 21.7 nM

B7: FuzzyYY1-b DNA (dsDNA)
DNA 1: AGTCCTAAATGGGGGAGGAG
DNA 2: CTCCTCCCCCATTTAGGACT
[3]; blunt
  Kd: 405 ± 45.9 nM
